This is an account of results in publication PMC6200312, “A Single Tim Translocase in the Mitosomes of Giardia intestinalis Illustrates Convergence of Protein Import Machines in Anaerobic Eukaryotes” (Genome Biology and Evolution, 2018).

In general, stoichiometry N refers to the number of molecules, sites or subunits per partner or assembly.

Data set [1] concerns the target GiTim17 synthesized in vitro (PURExpress) in lecithin liposomes (Giardia intestinalis). The data set can be described thus: native gel or EMSA; 35S-labelled GiTim17 translated in vitro with lecithin liposomes; pellet washed with 2 M urea in 50 mM sodium phosphate pH 8; Blue Native PAGE with 2% digitonin, 4-16% Bis-Tris gel. On the technique in general: Mobility shift assays separate free from complexed probe on a gel.

Data set [2] concerns the molecule itself. Description: non-reducing SDS-PAGE; GiTim17 in vivo in Giardia; ~40 kDa complex on nonreducing SDS-PAGE, no reducing agent.

In turn, “GiTim17 synthesized in vitro (PURExpress) in lecithin liposomes (natural protein)” came in with a stoichiometry N in data set [1] of 2.

B1: Giardia intestinalis Tim17 protein (GiTim17), in vivo in Giardia (natural protein, UniProt D3KGG5 1-180, looked up)
chain: MLRLWQEYVQEDDVLACLSVLDEDCQRAVQVIERLDVEGGTPEMQTHERVCTSFSHGLIRTALRRFPLALSKNLGRVQSMLNAFNHALQETSTESFSHAISSSCGSLVSSLCNNPSAGAAMGALPNLRKSPGAALSALLMGPTIAHLVGSVYSLGLNAYHICKLELRDLRLHRAEMDKKA
notes: Tim17 family protein of Giardia intestinalis, GL50803_10452, a protein of 180 amino acids, predicted mass 19.4 kDa; also called GL50803_10452
As for B1, the “stoichiometry N” value in data set [2] is around 2.
